This is an account of results in patent publication US20140057253, “METHOD TO PREDICT THE PATTERN OF LOCOMOTION IN HORSES” (CAPILET GENETICS AB, published 2014).

One data set concerns the target DMRT3 wild-type (Equus caballus, UniProt F6W2R2 SEQ:1-474). Description: EMSA; 150x cold competitor used; on ice 20 min then room temperature 30 min. As to conditions: tags: myc; label: 32P (Klenow fill-in with alpha-32P-dCTP). As for the experimental part: (§1) The oligonucleotide 5′-ggatcc[…]-3′ and its complementary sequence were annealed in 10 mM Tris pH 7.5, 1 mM EDTA, 50 mM KCl by firstly heating to 95° C. for 2 min and thereafter cooled to 25° C. (2 min/degree). The duplex was labelled with Klenow DNA polymerase and [α-32P]-dCTP and purified using a Bio-Rad Micro Bio-Spin 30 column. DMRT3 wild type and mutant protein were produced by in vitro-translation using a TNT Quick Coupled Transcription/Translation System (Promega). EMSA was performed as described by Culbertson & Leeds, 2003 (Looking at mRNA decay pathways through the window of molecular evolution. Curr. Opin. Genet. Dev. 13, 207-214) with the following modifications. No plasmid DNA was added and 1.0 μl in vitro-translated protein and 150× cold competitor were used. The reaction mixture was incubated on ice for 20 min before adding the radioactive oligo and thereafter incubated at room temperature for 30 min. Gels were run at 150 V in room temperature. […] It may therefore be a dominant negative form with normal DNA-binding but defective interaction with other proteins. This would be consistent with the clear phenotypic effects observed in heterozygotes. However, the mutation is not fully dominant as CA heterozygotes and AA homozygotes show distinct phenotypic differences.

In data set [1] the target is DMRT3 Ser301STOP mutant (truncated, 300 aa) (Equus caballus, UniProt J7FCF0 SEQ:1-300). Description: EMSA; 150x cold competitor used; on ice 20 min then room temperature 30 min; truncation retains DNA binding. As to conditions: tags: myc; label: 32P (Klenow fill-in with alpha-32P-dCTP). As for the experimental part: as §1
Sequence of DMRT3 Ser301STOP mutant (truncated, 300 aa) (J7FCF0 other isoform, or with tags, fused parts or gaps mutant): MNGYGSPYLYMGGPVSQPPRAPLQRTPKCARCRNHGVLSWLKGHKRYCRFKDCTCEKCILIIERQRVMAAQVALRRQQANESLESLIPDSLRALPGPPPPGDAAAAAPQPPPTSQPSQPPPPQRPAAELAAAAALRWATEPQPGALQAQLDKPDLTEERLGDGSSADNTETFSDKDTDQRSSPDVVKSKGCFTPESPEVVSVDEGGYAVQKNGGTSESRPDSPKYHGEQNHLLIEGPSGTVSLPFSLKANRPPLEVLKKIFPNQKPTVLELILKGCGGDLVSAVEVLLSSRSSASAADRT
A general note: In EMSA bound probe runs differently from free probe, usually more slowly.

Sequence of DMRT3 wild-type (F6W2R2 whole entry A151D): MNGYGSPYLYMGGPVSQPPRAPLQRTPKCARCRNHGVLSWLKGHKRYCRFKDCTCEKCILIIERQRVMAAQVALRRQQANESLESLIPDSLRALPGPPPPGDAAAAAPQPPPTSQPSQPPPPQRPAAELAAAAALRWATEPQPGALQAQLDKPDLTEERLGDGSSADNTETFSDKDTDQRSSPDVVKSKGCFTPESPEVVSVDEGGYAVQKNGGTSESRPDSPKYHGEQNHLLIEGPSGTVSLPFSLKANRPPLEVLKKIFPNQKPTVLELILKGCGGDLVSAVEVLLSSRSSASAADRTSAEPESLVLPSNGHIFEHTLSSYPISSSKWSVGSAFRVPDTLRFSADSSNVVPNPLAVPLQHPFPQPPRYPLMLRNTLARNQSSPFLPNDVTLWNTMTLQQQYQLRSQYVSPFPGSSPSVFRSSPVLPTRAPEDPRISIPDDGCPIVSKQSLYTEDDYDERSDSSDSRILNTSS

B1: DMRT-binding motif oligonucleotide (dsDNA)
DNA 1: GGATCCTCGAGAACAATGTAACAATTTCGCCC
DNA 2: GGGCGAAATTGTTACATTGTTCTCGAGGATCC
As to B1, the binding result (with DMRT3 wild-type; in data set [1]) was “binds” in each case.
